The values that follow come from paper PMC8211817.

Substrate in this series: N[C@@H](CC(=O)O)C(=O)O
The experiment in a line: purified protein. The conditions noted are these: 300 mM Na+ outside, pH 7, 10 mM potassium phosphate, valinomycin, 300 mM KCl in lumen, mixed membrane orientation, no sybody, labelled compound.

B1: GltTk (Thermococcus kodakarensis KOD1) (protein)
chain: MGKSLLRRYLDYPVLWKILWGLVLGAVFGLIAGHFGYAGAVKTYIKPFGDLFVRLLKMLVMPIVLASLVVGAASISPARLGRVGVKIVVYYLATSAMAVFFGLIVGRLFNVGANVNLGSGTGKAIEAQPPSLVQTLLNIVPTNPFASLAKGEVLPVIFFAIILGIAITYLMNRNEERVRKSAETLLRVFDGLAEAMYLIVGGVMQYAPIGVFALIAYVMAEQGVRVVGPLAKVVGAVYTGLFLQIVITYFILLKVFGIDPIKFIRKAKDAMITAFVTRSSSGTLPVTMRVAEEEMGVDKGIFSFTLPLGATINMDGTALYQGVTVLFVANAIGHPLTLGQQLVVVLTAVLASIGTAGVPGAGAIMLAMVLQSVGLDLTPGSPVALAYAMILGIDAILDMGRTMVNVTGDLAGTVIVAKTEKELDESKWIS
Consider B1, for which the Michaelis constant (Km) (commonly the concentration of substrate that gives half-maximal velocity) was 0.70 ± 0.22 µM; the kcat (usually the number of substrate molecules converted per active site and unit of time at saturation) is 0.895 s⁻¹.
